The source of these data is US7045552B2, “Pharmaceutical composition for improved administration of HIV gp41-derived peptides, and its use in therapy” (Trimeris, Inc., priority 2002, dated 2006).

Assay [1] has as its target HIV-1 gp41 (HIV-1).
Assay [2] concerns the target HIV-1 gp41 (HIV-1). The source holds these as a separate data set.
The test system of another assay is HIV. The following applies: cited from earlier work.

In the assay with HIV-1 gp41 (HIV-1) [1], T1249 (SEQ ID NO:5) (peptide) came in with an IC50 (ng/ml), Magi-CCR5 infectivity assay; mannitol formulation of 3.6 ng/mL.

With T20 (SEQ ID NO:4) (peptide), the IC50, antiviral potency by the methods of Example 2; PEG 1500 formulation with HIV-1 gp41 (HIV-1) [2] came to 6.6 ng/mL.

On to “NNLLRAIEAQQHLLQLTVWGIKQLQARILAVERYLKDQ [DP107]”, for which the “50% effective concentration (EC50), blocked infection of T cells” value in the assay with HIV is 1000 ng/mL.
